Blank lines part the entries; values can stand above or below the binder they belong to. Ends that are not written are not given here. * marks the point of attachment. Biotin = O=C1N[C@H]2[C@H](CS[C@H]2CCCCC(=O)*)N1
How the values were obtained:
Settings in all cases: both partners purified
Full-length Mad2^F141A = target: T1, Full-length Mad2^F141A (UniProt Q13257 1-205, F141A); assay: pull-down; GST-Cdc20 111-138 (1 uM) immobilised on GSH-agarose beads; 1 uM Mad2 for 24 h at room temperature, or 2 uM Mad2 as a time course; SDS-PAGE and densitometry
T1 construct: Mad2, full length, Phe141 replaced by Ala; purified as a monomer in the open (O-Mad2) conformation; Unlabelled form; source: purified as described [14], final size-exclusion chromatography on Superdex-75 in PBS
T1 sequence (Q13257 whole entry F141A): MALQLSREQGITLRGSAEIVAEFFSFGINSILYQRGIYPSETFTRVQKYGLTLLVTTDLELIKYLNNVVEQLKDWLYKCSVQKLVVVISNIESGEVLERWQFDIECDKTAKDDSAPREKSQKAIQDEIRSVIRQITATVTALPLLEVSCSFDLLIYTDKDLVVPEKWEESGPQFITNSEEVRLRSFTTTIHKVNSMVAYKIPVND

Full-length Mad2^wt = target: T2, Full-length Mad2^wt (UniProt Q13257 1-205); assay: as above
T2 construct: Mad2, wild type, full length; purified as a monomer in the open (O-Mad2) conformation; Unlabelled form; also called wild-type Mad2; O-Mad2; source: purified as described [14], final size-exclusion chromatography on Superdex-75 in PBS
T2 sequence (Q13257 whole entry): as the sequence (Q13257 whole entry F141A) above, with A141F counted along it

[1] = target: T3, Alexa Fluor 488-labelled Mad2^F141A (UniProt Q13257 1-205, F141A, Alexa 488 C5 maleimide, covalent label (residue not stated)); assay: real-time confocal fluorescence on a surface in a flow chamber; biotin-Cdc20 111-138 (~1 uM) held on a neutravidin-coated chamber surface; Alexa-488-Mad2 injected at 1-8 uM in PBS; fluorescence on the surface followed; constants from a global fit of rate equations
T3 construct: Mad2, full length, Phe141 replaced by Ala; monomeric O-Mad2 after labelling; Labelled form of m2; also called Alexa-Mad2^F141A; Alexa-488-Mad2^F141A; source: purified as described [14], labelled with Alexa 488 C5 maleimide, separated from free dye on Superdex-75
T3 sequence (Q13257 whole entry F141A): as the sequence (Q13257 whole entry F141A) above

[2] = target: T3, Alexa Fluor 488-labelled Mad2^F141A; assay: real-time confocal fluorescence in a flow chamber, signal in solution; same chamber with surface-held biotin-Cdc20 111-138; loss of Alexa-Mad2 fluorescence from solution followed; parameters of the curves laid over the data, [Cdc20T] = 0.9 uM

binding result (Full-length Mad2^F141A): binds
binding result (Full-length Mad2^wt): binds
Binder: EHQKAWALNLNGFDVEEAKILRLSGKPQ (domain or fragment, UniProt Q12834 111-138, looked up, Immobilised on GSH-agarose beads) [GST-Cdc20^111-138]

Kd [1]: 100 nM
koff [1]: 4.83e-06 s⁻¹
kon [1]: 48.3 M⁻¹ s⁻¹
Kd [2]: 240 nM
kon [2]: 27 M⁻¹ s⁻¹
B1: synthetic biotin-Cdc20^111-138 (peptide, UniProt Q12834 111-138, looked up)
peptide: Biotin-EHQKAWALNLNGFDVEEAKILRLSGKPQ
notes: Cdc20, residues 111-138; Held on the neutravidin-coated surface of the flow chamber through its biotin; also called biotinylated Cdc20 peptide; biotin-Cdc20 peptide^111-138; source: synthetic peptide
